Measurements reported in CN105622755A (1ST AFFILIATED HOSPITAL OF 3RD MILITARY MEDICAL UNIV PLA, dated 2016).

Assays:
重组表达的PSMA胞外区蛋白 = biological target: T1, 重组表达的PSMA胞外区蛋白 (UniProt Q04609 44-750, limits assumed); assay: indirect phage-ELISA, PSMA extracellular region coated at 5 μg/mL, HRP-anti-M13 detection
T1 construct: extracellular domain; also called 前列腺特异性膜抗原膜外区; PSMA抗原; not shown: His tag (purified with HisTrap FF Crude, detected with anti-His antibody)

[1] = biological target: T2, 前列腺特异性膜抗原 (PSMA) on LNCaP cells (UniProt Q04609 1-750, limits assumed); assay: cell ELISA (OD450) and immunofluorescence on fixed LNCaP cells (PSMA+) against MKN45 cells (PSMA-), anti-M13 detection
T2 construct: whole, on cells; Endogenous PSMA on fixed LNCaP cells; also called prostate specific membrane antigen; LNCaP细胞(表达PSMA)
T2 sequence (Q04609 whole entry): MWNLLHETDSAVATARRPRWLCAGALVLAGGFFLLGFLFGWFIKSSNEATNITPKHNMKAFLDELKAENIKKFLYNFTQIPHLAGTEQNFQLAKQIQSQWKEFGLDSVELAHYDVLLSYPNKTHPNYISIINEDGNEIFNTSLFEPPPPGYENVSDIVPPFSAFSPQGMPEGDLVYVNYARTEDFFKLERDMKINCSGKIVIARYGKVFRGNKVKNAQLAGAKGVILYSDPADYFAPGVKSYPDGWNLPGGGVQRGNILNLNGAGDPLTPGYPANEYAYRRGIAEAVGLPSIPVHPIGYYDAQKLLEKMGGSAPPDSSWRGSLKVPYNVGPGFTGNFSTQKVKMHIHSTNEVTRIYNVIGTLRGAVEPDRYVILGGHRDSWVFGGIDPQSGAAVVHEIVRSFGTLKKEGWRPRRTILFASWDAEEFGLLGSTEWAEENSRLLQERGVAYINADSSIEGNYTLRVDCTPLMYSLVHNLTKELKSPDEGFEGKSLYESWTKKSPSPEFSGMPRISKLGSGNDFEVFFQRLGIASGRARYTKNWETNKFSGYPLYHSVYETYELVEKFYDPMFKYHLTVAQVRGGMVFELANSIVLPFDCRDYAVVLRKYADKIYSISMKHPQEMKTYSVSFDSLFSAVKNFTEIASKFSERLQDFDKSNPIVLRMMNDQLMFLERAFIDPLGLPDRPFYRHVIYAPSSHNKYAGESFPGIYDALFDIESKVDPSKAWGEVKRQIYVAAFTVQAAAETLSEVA

T1 sequence (Q04609 44-750 limits assumed): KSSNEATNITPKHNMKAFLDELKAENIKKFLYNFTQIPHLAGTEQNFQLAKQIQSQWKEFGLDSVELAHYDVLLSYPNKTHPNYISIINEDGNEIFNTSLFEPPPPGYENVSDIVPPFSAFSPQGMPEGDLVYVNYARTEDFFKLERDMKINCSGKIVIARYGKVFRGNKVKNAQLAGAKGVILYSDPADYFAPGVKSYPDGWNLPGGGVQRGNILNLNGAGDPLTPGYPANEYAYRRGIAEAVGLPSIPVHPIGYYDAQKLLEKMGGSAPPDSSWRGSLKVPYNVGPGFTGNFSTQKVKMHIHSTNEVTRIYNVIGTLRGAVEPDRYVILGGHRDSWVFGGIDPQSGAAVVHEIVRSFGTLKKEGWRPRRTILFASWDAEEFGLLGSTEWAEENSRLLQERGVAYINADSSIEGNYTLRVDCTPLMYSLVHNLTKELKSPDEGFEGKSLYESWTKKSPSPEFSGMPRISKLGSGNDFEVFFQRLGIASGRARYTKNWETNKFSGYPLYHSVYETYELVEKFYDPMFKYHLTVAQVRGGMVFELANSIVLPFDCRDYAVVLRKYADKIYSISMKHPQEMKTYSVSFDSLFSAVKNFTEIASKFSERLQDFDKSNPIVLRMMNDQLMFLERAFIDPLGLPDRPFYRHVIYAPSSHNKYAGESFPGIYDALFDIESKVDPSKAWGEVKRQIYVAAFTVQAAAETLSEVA

B1: 抗前列腺特异性膜抗原单域重链抗体噬菌体阳性克隆 (VHH)
VHH: QVQLVESGGGLVQAGDSLRLSCAASRRTFSFMAWYRQAPGKQRELVAAITSGGRNTNYADSVKGRFTISRDNAKNTMYLQMNSLKPEDTAVYYCNAAARWNNYWGQGTPVTVSS
notes: The phage coat protein fusion and any linker are not described; Selected from a naive camelid VHH phage display library; also called 针对前列腺特异性膜抗原的单域重链抗体阳性克隆; 展示本发明所述纳米抗体的噬菌体克隆
B1: binds (重组表达的PSMA胞外区蛋白); binds [1].
